# Tested on: Saccharomyces cerevisiae
# Assay: protein stability index of tFT-peptide fusion in deletion strain of DAS1 (PSI (0-1 scale)); higher = more stable (slower turnover)
# Method: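 MPS profiling in S. cerevisiae of two library types built from selected 12-aa C-degron peptides (IN1, IN2, LN1, LN3, VN2, R1-R5, W1-W3, Atg1 and Rpa12 C-termini): saturation mutagenesis libraries and C-terminal +1 capping libraries (13 aa). Each peptide is fused to the C-terminus of a sfGFP-mCherry timer, after a GGGS linker. Cells are FACS-sorted into 8 mCherry/sfGFP bins and sequenced. PSI runs from 0 (unstable) to 1 (stable), measured once in wild type and in the das1Δ or doa10Δ background.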
# 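Also: PSI is a weighted mean of each variant's read distribution over the sorted stability bins, computed only for variants having over 10 reads in total.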
row,Sequence,protein stability index
1,AIWRVGLWRGAS,0.69
2,ARTRVGLWRGAS,0.66
3,ARWRVGFWRGAS,0.666
4,ARWRVGLLRGAS,0.669
5,ARWRVGLWRGAQ,0.679
6,ARWRVGLWRGNS,0.68
7,ARWRVGYWRGAS,0.691
8,ARWRVSLWRGAS,0.687
9,CESCGYKFRTNN,0.681
10,CMSCGYKFRTNN,0.71
11,CRGAVGGWRLVG,0.647
12,CTCCGYKFRTNN,0.676
13,CTKCGYKFRTNN,0.687
14,CTNCGYKFRTNN,0.696
15,CTSCGAKFRTNN,0.723
16,CTSCGCKFRTNN,0.694
17,CTSCGLKFRTNN,0.691
18,CTSCGVKFRTNN,0.692
19,CTSCGYKCRTNN,0.661
20,CTSCGYKFATNN,0.695
21,CTSCGYKFHTNN,0.713
22,CTSCGYKFRDNN,0.663
23,CTSCGYKFRQNN,0.69
24,CTSCGYKFRTCN,0.702

row,Sequence,protein stability index
1,CTSCGYKFRTNF,0.712
2,CTSCGYKFRTNNH,0.706
3,CTSCGYKFRTNNK,0.682
4,CTSCGYKFRTNR,0.692
5,CTSCGYKFRTNY,0.742
6,CTSCGYKFRTQN,0.663
7,CTSCGYKFSTNN,0.713
8,CTSCYYKFRTNN,0.639
9,CTSEGYKFRTNN,0.68
10,CTSQGYKFRTNN,0.678
11,CTTCGYKFRTNN,0.677
12,DLIQPLPVQFLN,0.59
13,ERWRVGLWRGAS,0.741
14,ETSCGYKFRTNN,0.672
15,FDMRWTFRYWVN,0.557
16,FEMRWTFRYWVN,0.437
17,FFMRWTFRYWVN,0.371
18,FSERWTFRYWVN,0.604
19,FSMCWTFRYWVN,0.412
20,FSMDWTFRYWVN,0.543
21,FSMIWTFRYWVN,0.301
22,FSMKWTFRYWVN,0.565
23,FSMPWTFRYWVN,0.598
24,FSMRKTFRYWVN,0.577

row,Sequence,protein stability index
1,FSMRPTFRYWVN,0.562
2,FSMRWHFRYWVN,0.756
3,FSMRWIFRYWVN,0.535
4,FSMRWMFRYWVN,0.528
5,FSMRWPFRYWVN,0.569
6,FSMRWRFRYWVN,0.584
7,FSMRWTFRMWVN,0.31
8,FSMRWTFRPWVN,0.6
9,FSMRWTFRVWVN,0.271
10,FSMRWTFRYPVN,0.555
11,FSMRWTFRYWCN,0.516
12,FSMRWTFRYWVF,0.439
13,FSMRWTFRYWVND,0.557
14,FSMRWTFRYWVNG,0.537
15,FSMRWTFRYWVNM,0.543
16,FSMRWTYRYWVN,0.504
17,FTMRWTFRYWVN,0.428
18,GSLAASFWRVVG,0.689
19,GVVYLSCVACIN,0.0346
20,HKHKKGQKQKIN,0.604
21,KFHKKGQKQKIN,0.576
22,KKGKKGQKQKIN,0.592
23,KKHGKGQKQKIN,0.707
24,KKHKKGAKQKIN,0.608

row,Sequence,protein stability index
1,KKHKKGHKQKIN,0.592
2,KKHKKGQFQKIN,0.618
3,KKHKKGQKCKIN,0.59
4,KKHKKGQKQKFN,0.635
5,KKHKKGQKQKHN,0.653
6,KKHKKGQKQKIM,0.609
7,KKHKKGQKQKINE,0.662
8,KKHKKGQKQKIV,0.596
9,KKHKKGQKQKLN,0.602
10,KKHKKGQKQKTN,0.619
11,KKHKKGQKQNIN,0.54
12,KKHKKGQKQRIN,0.642
13,KKHKKGQKQVIN,0.629
14,KKHKKGQKQYIN,0.678
15,KKHKKLQKQKIN,0.602
16,KKHKKNQKQKIN,0.585
17,KKHKKRQKQKIN,0.587
18,KKHKKVQKQKIN,0.619
19,KKHKTGQKQKIN,0.628
20,KKHWKGQKQKIN,0.594
21,KRGAVGGWRLVG,0.648
22,KSHKKGQKQKIN,0.6
23,KYHKKGQKQKIN,0.595
24,LIILRQKMNHQN,0.661

row,Sequence,protein stability index
1,LIVYLSCVACIN,0.0335
2,LKGLRQKMNHQN,0.669
3,LKIKRQKMNHQN,0.683
4,LKILMQKMNHQN,0.687
5,LKILQQKMNHQN,0.676
6,LKILRDKMNHQN,0.677
7,LKILRKKMNHQN,0.662
8,LKILRQFMNHQN,0.664
9,LKILRQKKNHQN,0.678
10,LKILRQKLNHQN,0.676
11,LKILRQKMIHQN,0.682
12,LKILRQKMMHQN,0.62
13,LKILRQKMNHFN,0.675
14,LKILRQKMNHGN,0.672
15,LKILRQKMNHHN,0.688
16,LKILRQKMNHQF,0.678
17,LKILRQKMNHQH,0.68
18,LKILRQKMNHQNC,0.661
19,LKILRQKMNHQNQ,0.685
20,LKILRQKMNHWN,0.666
21,LKILRQKMSHQN,0.682

# From the supplement of paper PMC10724198
